Columns and labels:
THRa:RXRa = THRa:RXRa (Homo sapiens, UniProt P10827;P19793 full;full); test: no ligand; PBM; 90 nM : 90 nM RXRa; PBS pH 7.4, 2% milk, 0.02% Triton X-100, 1 mM DTT, BSA, 0.4 mg/ml salmon testes DNA; settings: tags: His kept;His cleaved; copies: 1;1; label: surface-attached array probe
RARb:RXRa = RARb:RXRa (Homo sapiens, UniProt P10826;P19793 full;full); test: no ligand; PBM; 270 nM : 90 nM RXRa; PBS pH 7.4, 2% milk, 0.02% Triton X-100, 1 mM DTT, BSA, 0.4 mg/ml salmon testes DNA; settings: tags: His kept;His cleaved; copies: 1;1; label: surface-attached array probe
Method in brief: (§1)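 Binding z-scores were set against random background probes. The data came from custom Agilent 4×180K protein-binding microarrays carrying double-stranded probes with 34-nt variable regions, incubated 1 h with ligand-free nuclear receptor dimers. Partner-specific antibodies detected binding, and scanned fluorescence was regression-normalized.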

VDR:RXRa = VDR:RXRa (Homo sapiens, UniProt P11473;P19793 full;full); test: as above; settings: tags: His kept;His cleaved; copies: 1;1; label: surface-attached array probe
Method in brief: as §1

LXRa:RXRa = LXRa:RXRa (Homo sapiens, UniProt Q13133;P19793 full;full); test: as above; settings: tags: His kept;His cleaved; copies: 1;1; label: surface-attached array probe
Method in brief: as §1

LXRb:RXRa = LXRb:RXRa (Homo sapiens, UniProt P55055;P19793 full;full); test: as above; settings: tags: His kept;His cleaved; copies: 1;1; label: surface-attached array probe
Method in brief: as §1

FXR:RXRa = FXR:RXRa (Homo sapiens, UniProt Q96RI1;P19793 full;full); test: as above; settings: tags: His kept;His cleaved; copies: 1;1; label: surface-attached array probe
Method in brief: as §1

PXR:RXRa = PXR:RXRa (Homo sapiens, UniProt O75469;P19793 full;full); test: as above; settings: tags: His kept;His cleaved; copies: 1;1; label: surface-attached array probe
Method in brief: as §1

RXRa = RXRa (Homo sapiens, UniProt P19793); test: no ligand; PBM; 180 nM; PBS pH 7.4, 2% milk, 0.02% Triton X-100, 1 mM DTT, BSA, 0.4 mg/ml salmon testes DNA; settings: tags: His cleaved; chain copies: 2; label: surface-attached array probe
PPARg:RXRa = PPARg:RXRa (Homo sapiens, UniProt P37231;P19793 full;full); test: no ligand; PBM; 180 nM : 90 nM RXRa; PBS pH 7.4, 2% milk, 0.02% Triton X-100, 1 mM DTT, BSA, 0.4 mg/ml salmon testes DNA; settings: tags: His kept;His cleaved; copies: 1;1; label: surface-attached array probe
PPARa:RXRa = PPARa:RXRa (Homo sapiens, UniProt Q07869;P19793 full;full); test: no ligand; PBM; 270 nM : 90 nM RXRa; PBS pH 7.4, 2% milk, 0.02% Triton X-100, 1 mM DTT, BSA, 0.4 mg/ml salmon testes DNA; settings: tags: GST kept;His cleaved; copies: 1;1; label: surface-attached array probe
Method in brief: as §1

RARg:RXRa = RARg:RXRa (Homo sapiens, UniProt P13631;P19793 full;full); test: as above; settings: tags: His kept;His cleaved; copies: 1;1; label: surface-attached array probe
Method in brief: as §1

LXRa:RXRa, sequence (Q13133 whole entry, chain 1 of 2): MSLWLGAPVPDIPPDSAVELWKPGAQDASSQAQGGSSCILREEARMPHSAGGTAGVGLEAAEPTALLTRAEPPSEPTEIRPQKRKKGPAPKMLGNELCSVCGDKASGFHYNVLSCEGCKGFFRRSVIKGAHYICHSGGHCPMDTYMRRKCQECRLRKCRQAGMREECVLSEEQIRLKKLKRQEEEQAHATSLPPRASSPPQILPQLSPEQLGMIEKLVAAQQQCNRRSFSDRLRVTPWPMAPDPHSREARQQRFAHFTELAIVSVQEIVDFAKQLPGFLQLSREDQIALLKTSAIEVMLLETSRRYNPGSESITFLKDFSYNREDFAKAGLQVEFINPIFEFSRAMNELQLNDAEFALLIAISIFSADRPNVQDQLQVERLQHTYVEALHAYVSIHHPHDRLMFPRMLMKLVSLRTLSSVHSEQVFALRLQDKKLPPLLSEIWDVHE
LXRa:RXRa, sequence (P19793 whole entry, chain 2 of 2): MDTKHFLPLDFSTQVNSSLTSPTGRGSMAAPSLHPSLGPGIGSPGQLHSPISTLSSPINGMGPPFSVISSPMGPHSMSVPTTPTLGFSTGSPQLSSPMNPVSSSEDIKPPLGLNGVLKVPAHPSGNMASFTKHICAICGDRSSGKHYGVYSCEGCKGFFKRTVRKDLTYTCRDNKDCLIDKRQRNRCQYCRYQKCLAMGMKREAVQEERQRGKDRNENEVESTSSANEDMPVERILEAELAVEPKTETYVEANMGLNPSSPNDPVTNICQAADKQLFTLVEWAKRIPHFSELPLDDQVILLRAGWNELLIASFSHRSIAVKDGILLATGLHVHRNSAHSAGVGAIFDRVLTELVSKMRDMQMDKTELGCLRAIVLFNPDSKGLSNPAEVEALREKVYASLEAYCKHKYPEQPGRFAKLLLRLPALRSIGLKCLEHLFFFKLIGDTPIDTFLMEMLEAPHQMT
RARb:RXRa, sequence (P10826 whole entry, chain 1 of 2): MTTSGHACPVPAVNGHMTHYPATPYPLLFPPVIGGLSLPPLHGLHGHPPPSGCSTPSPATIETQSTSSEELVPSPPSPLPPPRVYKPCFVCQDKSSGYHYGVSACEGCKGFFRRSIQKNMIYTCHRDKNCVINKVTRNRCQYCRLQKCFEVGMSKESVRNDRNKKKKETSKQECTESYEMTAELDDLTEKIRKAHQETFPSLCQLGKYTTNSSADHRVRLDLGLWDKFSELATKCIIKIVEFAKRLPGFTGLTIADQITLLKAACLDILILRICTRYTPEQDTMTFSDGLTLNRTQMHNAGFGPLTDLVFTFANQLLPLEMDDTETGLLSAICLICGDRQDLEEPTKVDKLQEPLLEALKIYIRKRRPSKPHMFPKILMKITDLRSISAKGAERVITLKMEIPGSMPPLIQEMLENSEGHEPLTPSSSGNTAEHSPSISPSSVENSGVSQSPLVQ
RARb:RXRa, sequence (P19793 whole entry, chain 2 of 2): as the sequence (P19793 whole entry, chain 2 of 2) above
PXR:RXRa, sequence (O75469 whole entry, chain 1 of 2): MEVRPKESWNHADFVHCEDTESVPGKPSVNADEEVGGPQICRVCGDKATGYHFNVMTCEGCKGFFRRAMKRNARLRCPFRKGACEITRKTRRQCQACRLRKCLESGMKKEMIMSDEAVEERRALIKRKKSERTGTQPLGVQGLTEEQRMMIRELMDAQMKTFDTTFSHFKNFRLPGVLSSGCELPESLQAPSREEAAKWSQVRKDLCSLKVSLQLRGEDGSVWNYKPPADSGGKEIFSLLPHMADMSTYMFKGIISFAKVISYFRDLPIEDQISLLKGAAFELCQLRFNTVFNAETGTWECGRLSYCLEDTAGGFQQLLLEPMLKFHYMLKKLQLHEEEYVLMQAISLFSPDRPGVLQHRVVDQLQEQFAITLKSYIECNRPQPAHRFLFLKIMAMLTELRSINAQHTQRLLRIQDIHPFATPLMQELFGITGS
PXR:RXRa, sequence (P19793 whole entry, chain 2 of 2): as the sequence (P19793 whole entry, chain 2 of 2) above
THRa:RXRa, sequence (P10827 other isoform, or with tags, fused parts or gaps, chain 1 of 2): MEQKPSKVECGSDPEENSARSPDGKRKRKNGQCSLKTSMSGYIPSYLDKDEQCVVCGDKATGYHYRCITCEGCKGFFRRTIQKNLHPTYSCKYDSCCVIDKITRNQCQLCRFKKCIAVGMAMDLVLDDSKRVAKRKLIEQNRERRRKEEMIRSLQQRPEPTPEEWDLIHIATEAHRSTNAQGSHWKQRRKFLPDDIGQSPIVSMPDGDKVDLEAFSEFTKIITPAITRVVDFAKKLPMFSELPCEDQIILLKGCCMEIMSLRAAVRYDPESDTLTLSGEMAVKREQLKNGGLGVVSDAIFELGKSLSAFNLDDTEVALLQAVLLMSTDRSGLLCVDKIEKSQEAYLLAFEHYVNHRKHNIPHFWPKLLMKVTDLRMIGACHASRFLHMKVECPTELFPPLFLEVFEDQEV
THRa:RXRa, sequence (P19793 whole entry, chain 2 of 2): as the sequence (P19793 whole entry, chain 2 of 2) above
VDR:RXRa, sequence (P11473 whole entry, chain 1 of 2): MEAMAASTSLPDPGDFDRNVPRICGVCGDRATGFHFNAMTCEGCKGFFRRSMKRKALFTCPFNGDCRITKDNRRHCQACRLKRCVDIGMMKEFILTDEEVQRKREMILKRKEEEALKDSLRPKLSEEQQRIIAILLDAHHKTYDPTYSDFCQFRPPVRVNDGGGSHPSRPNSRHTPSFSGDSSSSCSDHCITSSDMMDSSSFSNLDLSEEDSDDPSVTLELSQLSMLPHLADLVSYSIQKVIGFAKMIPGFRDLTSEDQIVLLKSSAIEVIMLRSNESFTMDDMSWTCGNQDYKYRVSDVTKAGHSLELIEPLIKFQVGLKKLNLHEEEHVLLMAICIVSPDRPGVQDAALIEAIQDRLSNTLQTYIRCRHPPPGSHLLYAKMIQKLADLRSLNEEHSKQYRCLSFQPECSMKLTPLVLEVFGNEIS
VDR:RXRa, sequence (P19793 whole entry, chain 2 of 2): as the sequence (P19793 whole entry, chain 2 of 2) above
RXRa, sequence (P19793 whole entry): as the sequence (P19793 whole entry, chain 2 of 2) above

Binder | binding signal (THRa:RXRa) | binding signal (RARb:RXRa) | binding signal (VDR:RXRa) | binding signal (LXRa:RXRa) | binding signal (LXRb:RXRa) | binding signal (FXR:RXRa) | binding signal (PXR:RXRa) | binding signal (RXRa) | binding signal (PPARg:RXRa) | binding signal (PPARa:RXRa) | binding signal (RARg:RXRa)
NRC3_wobSeed94_DR3_G13C_o1 (dsDNA) DNA 1: GCCTACCAAGGTCAACAAGGTCGTTGATTACTATTCGCGATTGACAGCGTAGAATGAAGG DNA 2: CCTTCATTCTACGCTGTCAATCGCGAATAGTAATCAACGACCTTGTTGACCTTGGTAGGC | 4.82 PBM z-score against 500 random probes | 5.51 PBM z-score against 500 random probes | 8.68 PBM z-score against 500 random probes | 6.7 PBM z-score against 500 random probes | 5.94 PBM z-score against 500 random probes | 8.19 PBM z-score against 500 random probes | 6.83 PBM z-score against 500 random probes | – | – | – | –
NRC3_random_hg19_103_o1 (dsDNA) DNA 1: GCTCAGGAGTTCGAGAACAGCCTGGCTAACATGGCGGCGATTGACAGCGTAGAATGAAGG DNA 2: CCTTCATTCTACGCTGTCAATCGCCGCCATGTTAGCCAGGCTGTTCTCGAACTCCTGAGC | -0.5 PBM z-score against 500 random probes | – | – | 0.13 PBM z-score against 500 random probes | – | – | 0.28 PBM z-score against 500 random probes | – | – | – | –
NRC3_wobSeed77_DR3_T22C_o1 (dsDNA) DNA 1: GCACTTACGGGTCAACGAGGTCATAGCACGCGTATAGCGATTGACAGCGTAGAATGAAGG DNA 2: CCTTCATTCTACGCTGTCAATCGCTATACGCGTGCTATGACCTCGTTGACCCGTAAGTGC | 4.97 PBM z-score against 500 random probes | – | 8.66 PBM z-score against 500 random probes | – | 6.07 PBM z-score against 500 random probes | – | 6.59 PBM z-score against 500 random probes | 7.88 PBM z-score against 500 random probes | – | – | –
NRC3_wobSeed138_DR5_C13G_o1 (dsDNA) DNA 1: GCGATACAGGGTGAGCTAGAGGCCAGAGTATGGAAAGCGATTGACAGCGTAGAATGAAGG DNA 2: CCTTCATTCTACGCTGTCAATCGCTTTCCATACTCTGGCCTCTAGCTCACCCTGTATCGC | 0.33 PBM z-score against 500 random probes | – | – | – | – | – | – | – | 0.43 PBM z-score against 500 random probes | – | –
NRC3_wobSeed85_DR3_G15C_o1 (dsDNA) DNA 1: GCCGTCCAAGGTCACAGAGGTCAGTGAATGCCGAGTGCGATTGACAGCGTAGAATGAAGG DNA 2: CCTTCATTCTACGCTGTCAATCGCACTCGGCATTCACTGACCTCTGTGACCTTGGACGGC | 4.91 PBM z-score against 500 random probes | 5.99 PBM z-score against 500 random probes | – | – | 5.81 PBM z-score against 500 random probes | 7.83 PBM z-score against 500 random probes | 6.95 PBM z-score against 500 random probes | – | – | 6.53 PBM z-score against 500 random probes | 7.46 PBM z-score against 500 random probes
NRC3_wobSeed85_DR3_G24T_o1 (dsDNA) DNA 1: GCCGTCCAAGGTCAGAGAGGTCATTGAATGCCGAGTGCGATTGACAGCGTAGAATGAAGG DNA 2: CCTTCATTCTACGCTGTCAATCGCACTCGGCATTCAATGACCTCTCTGACCTTGGACGGC | 4.8 PBM z-score against 500 random probes | 5.65 PBM z-score against 500 random probes | 8.16 PBM z-score against 500 random probes | – | – | – | 7.16 PBM z-score against 500 random probes | – | – | – | –
NRC3_wobSeed117_DR4_A23T_o1 (dsDNA) DNA 1: GCCGTCAAAGTTCAACTAAGGTTACGTAAAGCACGCGCGATTGACAGCGTAGAATGAAGG DNA 2: CCTTCATTCTACGCTGTCAATCGCGCGTGCTTTACGTAACCTTAGTTGAACTTTGACGGC | 5.54 PBM z-score against 500 random probes | – | – | 7.31 PBM z-score against 500 random probes | – | – | 6.82 PBM z-score against 500 random probes | – | – | – | –
NRC3_wobSeed142_DR5_G13C_o1 (dsDNA) DNA 1: GCATACCAAGGTCATCGTGAGGTCGTTGATACTAACGCGATTGACAGCGTAGAATGAAGG DNA 2: CCTTCATTCTACGCTGTCAATCGCGTTAGTATCAACGACCTCACGATGACCTTGGTATGC | 5.13 PBM z-score against 500 random probes | – | 7.1 PBM z-score against 500 random probes | – | – | – | 6.51 PBM z-score against 500 random probes | – | – | – | 7.52 PBM z-score against 500 random probes
NRC3_wobSeed120_DR4_G22T_o1 (dsDNA) DNA 1: GCCCGAGTAGGTTACGAGGGGTCATTCAGTGCGAATGCGATTGACAGCGTAGAATGAAGG DNA 2: CCTTCATTCTACGCTGTCAATCGCATTCGCACTGAATGACCCCTCGTAACCTACTCGGGC | 4.77 PBM z-score against 500 random probes | – | 6.94 PBM z-score against 500 random probes | 8.11 PBM z-score against 500 random probes | 7.35 PBM z-score against 500 random probes | – | 6.59 PBM z-score against 500 random probes | – | – | – | –

Reference: publication PMC6555819, “Comprehensive study of nuclear receptor DNA binding provides a revised framework for understanding receptor specificity”
